Measurements taken from paper PMC2887978.

Target: MBD2b (UniProt Q9UBB5 150-411)
Experiment: EMSA

Sequence of MBD2b (Q9UBB5 150-411): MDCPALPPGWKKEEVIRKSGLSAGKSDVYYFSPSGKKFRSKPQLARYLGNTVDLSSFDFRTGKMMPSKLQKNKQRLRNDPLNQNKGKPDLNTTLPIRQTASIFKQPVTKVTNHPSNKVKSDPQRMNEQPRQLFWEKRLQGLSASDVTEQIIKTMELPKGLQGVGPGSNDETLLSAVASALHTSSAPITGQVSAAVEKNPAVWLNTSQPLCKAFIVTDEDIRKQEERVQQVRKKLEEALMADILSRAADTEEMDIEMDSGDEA

B1: C76 (dsDNA)
DNA 1: CCTCACCATCTCAACCAATATTATATTACGCGTATATCGCGTATTTCGCGTTATAATATTGAGGGAGAAGTGGTGA
DNA 2: TCACCACTTCTCCCTCAATATTATAACGCGAAATACGCGATATACGCGTAATATAATATTGGTTGAGATGGTGAGG
binding result: no binding
